T1: GST-NFAT1(1-415) fusion protein (entire NFAT1 regulatory domain) expressed in bacterial cells
T1 sequence (Q13469 whole entry, species assumed, looked up): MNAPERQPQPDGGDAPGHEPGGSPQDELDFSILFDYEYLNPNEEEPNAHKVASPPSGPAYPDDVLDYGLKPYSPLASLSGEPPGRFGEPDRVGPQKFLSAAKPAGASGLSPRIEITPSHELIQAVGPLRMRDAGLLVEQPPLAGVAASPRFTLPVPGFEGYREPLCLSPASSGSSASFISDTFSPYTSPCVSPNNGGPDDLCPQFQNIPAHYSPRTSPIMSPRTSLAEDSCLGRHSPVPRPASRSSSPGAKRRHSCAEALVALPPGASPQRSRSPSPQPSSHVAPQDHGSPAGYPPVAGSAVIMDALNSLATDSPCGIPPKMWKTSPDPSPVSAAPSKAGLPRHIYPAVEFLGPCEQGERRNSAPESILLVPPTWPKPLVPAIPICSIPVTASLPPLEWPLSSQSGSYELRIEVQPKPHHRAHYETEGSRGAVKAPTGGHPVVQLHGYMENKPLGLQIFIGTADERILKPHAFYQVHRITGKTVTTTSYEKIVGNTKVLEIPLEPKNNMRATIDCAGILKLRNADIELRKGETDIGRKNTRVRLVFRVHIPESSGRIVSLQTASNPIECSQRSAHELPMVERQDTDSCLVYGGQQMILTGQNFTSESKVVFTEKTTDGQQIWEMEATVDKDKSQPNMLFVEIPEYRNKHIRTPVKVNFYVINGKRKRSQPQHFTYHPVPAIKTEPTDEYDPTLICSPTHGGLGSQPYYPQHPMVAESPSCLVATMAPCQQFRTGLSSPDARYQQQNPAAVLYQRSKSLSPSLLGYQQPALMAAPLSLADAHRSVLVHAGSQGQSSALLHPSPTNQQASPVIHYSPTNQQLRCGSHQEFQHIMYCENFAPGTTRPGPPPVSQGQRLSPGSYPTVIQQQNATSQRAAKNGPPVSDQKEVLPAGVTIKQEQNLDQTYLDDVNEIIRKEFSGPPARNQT

T2: GST-fused peptide corresponding to the SP-2 motif (amino acids 206-237) of NFAT1, wild type
T2 sequence (Q13469 whole entry, species assumed, looked up): T1 sequence (Q13469 whole entry, species assumed, looked up)

B1: FLAG-tagged DYRK2 expressed in HEK293 cells and immunoprecipitated with anti-FLAG antibody (protein)
chain: MNDHLHVGSHAHGQIQVQQLFEDNSNKRTVLTTQPNGLTTVGKTGLPVVPERQLDSIHRRQGSSTSLKSMEGMGKVKATPMTPEQAMKQYMQKLTAFEHHEIFSYPEIYFLGLNAKKRQGMTGGPNNGGYDDDQGSYVQVPHDHVAYRYEVLKVIGKGSFGQVVKAYDHKVHQHVALKMVRNEKRFHRQAAEEIRILEHLRKQDKDNTMNVIHMLENFTFRNHICMTFELLSMNLYELIKKNKFQGFSLPLVRKFAHSILQCLDALHKNRIIHCDLKPENILLKQQGRSGIKVIDFGSSCYEHQRVYTYIQSRFYRAPEVILGARYGMPIDMWSLGCILAELLTGYPLLPGEDEGDQLACMIELLGMPSQKLLDASKRAKNFVSSKGYPRYCTVTTLSDGSVVLNGGRSRRGKLRGPPESREWGNALKGCDDPLFLDFLKQCLEWDPAVRMTPGQALRHPWLRRRLPKPPTGEKTSVKRITESTGAITSISKLPPPSSSASKLRTNLAQMTDANGNIQQRTVLPKLVS
B2: FLAG-tagged PRKG1 expressed in HEK293 cells and immunoprecipitated with anti-FLAG antibody (protein)
chain: MSELEEDFAKILMLKEERIKELEKRLSEKEEEIQELKRKLHKCQSVLPVPSTHIGPRTTRAQGISAEPQTYRSFHDLRQAFRKFTKSERSKDLIKEAILDNDFMKNLELSQIQEIVDCMYPVEYGKDSCIIKEGDVGSLVYVMEDGKVEVTKEGVKLCTMGPGKVFGELAILYNCTRTATVKTLVNVKLWAIDRQCFQTIMMRTGLIKHTEYMEFLKSVPTFQSLPEEILSKLADVLEETHYENGEYIIRQGARGDTFFIISKGTVNVTREDSPSEDPVFLRTLGKGDWFGEKALQGEDVRTANVIAAEAVTCLVIDRDSFKHLIGGLDDVSNKAYEDAEAKAKYEAEAAFFANLKLSDFNIIDTLGVGGFGRVELVQLKSEESKTFAMKILKKRHIVDTRQQEHIRSEKQIMQGAHSDFIVRLYRTFKDSKYLYMLMEACLGGELWTILRDRGSFEDSTTRFYTACVVEAFAYLHSKGIIYRDLKPENLILDHRGYAKLVDFGFAKKIGFGKKTWTFCGTPEYVAPEIILNKGHDISADYWSLGILMYELLTGSPPFSGPDPMKTYNIILRGIDMIEFPKKIAKNAANLIKKLCRDNPSERLGNLKNGVKDIQKHKWFEGFNWEGLRKGTLTPPIIPSVASPTDTSNFDSFPEDNDEPPPDDNSGWDIDF
B3: FLAG-tagged IRAK4 expressed in HEK293 cells and immunoprecipitated with anti-FLAG antibody (protein)
chain: MNKPITPSTYVRCLNVGLIRKLSDFIDPQEGWKKLAVAIKKPSGDDRYNQFHIRRFEALLQTGKSPTSELLFDWGTTNCTVGDLVDLLIQNEFFAPASLLLPDAVPKTANTLPSKEAITVQQKQMPFCDKDRTLMTPVQNLEQSYMPPDSSSPENKSLEVSDTRFHSFSFYELKNVTNNFDERPISVGGNKMGEGGFGVVYKGYVNNTTVAVKKLAAMVDITTEELKQQFDQEIKVMAKCQHENLVELLGFSSDGDDLCLVYVYMPNGSLLDRLSCLDGTPPLSWHMRCKIAQGAANGINFLHENHHIHRDIKSANILLDEAFTAKISDFGLARASEKFAQTVMTSRIVGTTAYMAPEALRGEITPKSDIYSFGVVLLEIITGLPAVDEHREPQLLLDIKEEIEDEEKTIEDYIDKKMNDADSTSVEAMYSVASQCLHEKKNKRPDIKKVQQLLQEMTAS
B4: recombinant DYRK2 protein kinase (Upstate Biotechnology), bacterially expressed (protein)
chain: B1 chain

Columns and labels:
[1] = target: GST-fused peptide corresponding to the SP-3 motif (amino acids 264-295) of NFAT1, wild type
[2] = target: T1, GST-NFAT1(1-415) fusion protein (entire …)
[3] = target: T2, GST-fused peptide corresponding to the …
[4] = target: GST-fused SP-3 peptide of NFAT1 (amino acids 264-295) with Ser>Ala substitutions in the serines phosphorylated in cells

Protein	in vitro kinase assay, phosphorylation of GST-peptide [1]	in vitro kinase assay, phosphorylation of GST-NFAT1 (1-415) (autoradiography) [2]	in vitro kinase assay, phosphorylation of GST-peptide [3]	in vitro kinase assay with recombinant kinase, phosphorylation of GST-peptide [4]	in vitro kinase assay with recombinant kinase, phosphorylation of GST-peptide [1]
B1	phosphorylated peptides corresponding to the conserved SP-3 but not the SP-2 motif of the NFAT regulatory domain in vitro	Three novel candidates-PRKG1, DYRK2 and IRAK4-showed strong activity in this assay	phosphorylated peptides corresponding to the conserved SP-3 but not the SP-2 motif of the NFAT regulatory domain in vitro		
B2		Three novel candidates-PRKG1, DYRK2 and IRAK4-showed strong activity in this assay			
B3		Three novel candidates-PRKG1, DYRK2 and IRAK4-showed strong activity in this assay			
B4				neither kinase phosphorylated an SP-3 peptide with Ser>Ala substitutions in the specific serine residues known to be phosphorylated in cells	DYRK2 and DYRK1A both displayed strong and selective kinase activity towards the SP-3 motif of NFAT1
